Measurements from patent US20040265295A1 (WISCONSIN ALUMNI RESEARCH FOUNDATION, published 2004).
Square brackets hold non-standard residues; d marks the D form. Ends that are not written are not given here. pY = N[C@@H](Cc1ccc(OP(=O)(O)O)cc1)C(=O)O; pT = C[C@@H](OP(=O)(O)O)[C@H](N)C(=O)O

Legend:
talin [1] = biological target: T1, talin (Homo sapiens (Human), UniProt Q9Y490 1-2541); assay: co-immunoprecipitation from HEK293T cells in suspension versus adherent to type I collagen
T1 construct: Endogenous talin of HEK293T (and other) cells, detected with anti-talin antibody; also called talin (endogenous, in cell lysates)
T1 sequence (Q9Y490 other isoform, or with tags, fused parts or gaps limits assumed): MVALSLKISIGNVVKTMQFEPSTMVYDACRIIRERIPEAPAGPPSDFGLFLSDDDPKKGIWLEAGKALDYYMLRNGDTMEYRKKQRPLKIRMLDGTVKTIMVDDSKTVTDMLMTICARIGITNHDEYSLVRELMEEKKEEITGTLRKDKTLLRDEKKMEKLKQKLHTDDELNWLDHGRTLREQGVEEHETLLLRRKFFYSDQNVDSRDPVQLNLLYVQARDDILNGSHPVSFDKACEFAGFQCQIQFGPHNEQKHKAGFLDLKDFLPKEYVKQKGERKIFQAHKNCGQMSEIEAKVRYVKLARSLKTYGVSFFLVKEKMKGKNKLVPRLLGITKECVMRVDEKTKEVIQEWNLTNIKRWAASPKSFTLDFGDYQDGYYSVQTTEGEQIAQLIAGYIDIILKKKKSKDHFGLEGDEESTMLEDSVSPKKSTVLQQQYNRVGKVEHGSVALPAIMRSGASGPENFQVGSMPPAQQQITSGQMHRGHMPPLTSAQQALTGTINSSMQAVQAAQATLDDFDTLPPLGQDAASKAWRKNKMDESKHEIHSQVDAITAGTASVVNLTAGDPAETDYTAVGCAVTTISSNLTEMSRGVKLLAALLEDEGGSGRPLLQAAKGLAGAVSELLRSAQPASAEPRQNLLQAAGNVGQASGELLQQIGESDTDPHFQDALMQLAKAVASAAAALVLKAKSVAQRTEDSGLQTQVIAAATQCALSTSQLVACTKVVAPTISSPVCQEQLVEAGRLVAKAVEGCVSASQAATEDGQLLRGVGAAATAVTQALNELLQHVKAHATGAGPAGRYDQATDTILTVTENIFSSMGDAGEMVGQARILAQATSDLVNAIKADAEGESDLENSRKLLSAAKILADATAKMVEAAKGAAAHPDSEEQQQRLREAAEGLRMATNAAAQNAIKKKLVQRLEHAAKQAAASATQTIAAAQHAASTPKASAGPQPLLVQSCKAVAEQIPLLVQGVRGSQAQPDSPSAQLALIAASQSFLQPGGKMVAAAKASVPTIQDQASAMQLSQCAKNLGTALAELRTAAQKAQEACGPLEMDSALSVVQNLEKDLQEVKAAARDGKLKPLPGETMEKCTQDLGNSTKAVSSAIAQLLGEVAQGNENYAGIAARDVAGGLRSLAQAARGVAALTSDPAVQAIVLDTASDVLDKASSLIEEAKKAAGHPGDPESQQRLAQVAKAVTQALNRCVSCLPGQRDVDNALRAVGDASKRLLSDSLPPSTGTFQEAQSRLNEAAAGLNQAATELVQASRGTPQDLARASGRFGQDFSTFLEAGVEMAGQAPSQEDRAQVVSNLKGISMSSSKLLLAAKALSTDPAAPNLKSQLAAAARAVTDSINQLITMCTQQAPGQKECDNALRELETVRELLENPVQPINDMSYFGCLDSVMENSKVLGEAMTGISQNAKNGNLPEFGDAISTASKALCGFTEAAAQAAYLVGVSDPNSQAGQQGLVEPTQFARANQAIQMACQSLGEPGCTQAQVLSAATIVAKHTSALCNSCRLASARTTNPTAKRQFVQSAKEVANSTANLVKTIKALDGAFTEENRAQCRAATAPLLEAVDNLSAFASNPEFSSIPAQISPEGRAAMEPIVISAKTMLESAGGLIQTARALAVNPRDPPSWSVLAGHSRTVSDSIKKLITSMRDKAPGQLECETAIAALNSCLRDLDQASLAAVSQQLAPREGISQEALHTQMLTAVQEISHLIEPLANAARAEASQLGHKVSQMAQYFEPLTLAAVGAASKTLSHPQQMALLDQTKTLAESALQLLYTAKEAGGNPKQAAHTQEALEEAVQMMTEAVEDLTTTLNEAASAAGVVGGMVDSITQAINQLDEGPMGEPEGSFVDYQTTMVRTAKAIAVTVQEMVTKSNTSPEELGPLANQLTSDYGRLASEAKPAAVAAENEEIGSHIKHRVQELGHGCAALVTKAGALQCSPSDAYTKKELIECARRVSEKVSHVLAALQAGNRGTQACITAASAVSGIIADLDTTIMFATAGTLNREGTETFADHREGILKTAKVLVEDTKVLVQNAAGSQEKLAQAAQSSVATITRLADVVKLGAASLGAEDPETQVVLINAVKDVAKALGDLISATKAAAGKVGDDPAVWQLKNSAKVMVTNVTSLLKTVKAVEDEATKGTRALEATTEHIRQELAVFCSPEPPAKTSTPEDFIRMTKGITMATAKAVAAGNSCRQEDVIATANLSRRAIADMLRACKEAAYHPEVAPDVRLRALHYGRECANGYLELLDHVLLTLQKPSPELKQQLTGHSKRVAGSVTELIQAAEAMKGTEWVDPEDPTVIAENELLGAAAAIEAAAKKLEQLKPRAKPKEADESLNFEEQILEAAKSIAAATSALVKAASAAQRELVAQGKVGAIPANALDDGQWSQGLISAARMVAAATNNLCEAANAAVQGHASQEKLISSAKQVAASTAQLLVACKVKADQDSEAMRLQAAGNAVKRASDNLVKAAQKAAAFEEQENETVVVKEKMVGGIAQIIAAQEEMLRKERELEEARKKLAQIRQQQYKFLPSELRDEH
Description: The association between PIPKIγ661 and talin was also regulated by adhesion to type I collagen. […] However, in suspended cells, the PIPKIγ661 association with talin was restored when cells were stimulated with lysophosphatidic acid (LPA) or platelet-derived growth factor (PDGF).
Immunoprecipitation was performed using standard methods (Zhang, et al. (1997) J. Biol. Chem. 272:17756-17761). Briefly, transfected HEK293T cells were harvested and lysed in Buffer A (50 mM Tris-HCl, pH 7.5, 150 mM NaCl, 0.1-1.0% NP-40, 5.0 mM NaF, 2 mM Na₃VO₄, 4 mM Na₂P₂O₇, 1 mM EDTA, 0.1 mM EGTA, 1 mM phenylmethyl sulphonyl fluoride (PMSF), 10% glycerol), centrifuged and incubated with protein A-Sepharose and 5 μg anti-HA, anti-c-Myc, anti-Flag, anti-PIPKIγ or anti-talin antibody as indicated at 4° C. for 4 hours to overnight. The immunocomplexes were washed with Buffer A, separated by SDS-polyacrylamide gel electrophoresis (SDS-PAGE), and analyzed as indicated. For the kinase assay, the immunocomplexes were washed and stored in kinase buffer.
The cells were harvested and washed with PBS, and suspended in serum-free DMEM at 37° C. for 1 hour. After stimulation with 10 ng/ml platelet-derived growth factor (PDGF) (R&D Systems Inc., Minneapolis, Minn.), 1 μuM LPA (Sigma, St. Louis) or serum at 37° C. for 15 minutes, cells were lysed as for immunoprecipitation. […]

vinculin = biological target: T2, vinculin (UniProt P18206-2 1-1066, limits assumed); assay: co-immunoprecipitation with HA-tagged PIPKIγ661 from HEK 293T cells
T2 sequence (looked up): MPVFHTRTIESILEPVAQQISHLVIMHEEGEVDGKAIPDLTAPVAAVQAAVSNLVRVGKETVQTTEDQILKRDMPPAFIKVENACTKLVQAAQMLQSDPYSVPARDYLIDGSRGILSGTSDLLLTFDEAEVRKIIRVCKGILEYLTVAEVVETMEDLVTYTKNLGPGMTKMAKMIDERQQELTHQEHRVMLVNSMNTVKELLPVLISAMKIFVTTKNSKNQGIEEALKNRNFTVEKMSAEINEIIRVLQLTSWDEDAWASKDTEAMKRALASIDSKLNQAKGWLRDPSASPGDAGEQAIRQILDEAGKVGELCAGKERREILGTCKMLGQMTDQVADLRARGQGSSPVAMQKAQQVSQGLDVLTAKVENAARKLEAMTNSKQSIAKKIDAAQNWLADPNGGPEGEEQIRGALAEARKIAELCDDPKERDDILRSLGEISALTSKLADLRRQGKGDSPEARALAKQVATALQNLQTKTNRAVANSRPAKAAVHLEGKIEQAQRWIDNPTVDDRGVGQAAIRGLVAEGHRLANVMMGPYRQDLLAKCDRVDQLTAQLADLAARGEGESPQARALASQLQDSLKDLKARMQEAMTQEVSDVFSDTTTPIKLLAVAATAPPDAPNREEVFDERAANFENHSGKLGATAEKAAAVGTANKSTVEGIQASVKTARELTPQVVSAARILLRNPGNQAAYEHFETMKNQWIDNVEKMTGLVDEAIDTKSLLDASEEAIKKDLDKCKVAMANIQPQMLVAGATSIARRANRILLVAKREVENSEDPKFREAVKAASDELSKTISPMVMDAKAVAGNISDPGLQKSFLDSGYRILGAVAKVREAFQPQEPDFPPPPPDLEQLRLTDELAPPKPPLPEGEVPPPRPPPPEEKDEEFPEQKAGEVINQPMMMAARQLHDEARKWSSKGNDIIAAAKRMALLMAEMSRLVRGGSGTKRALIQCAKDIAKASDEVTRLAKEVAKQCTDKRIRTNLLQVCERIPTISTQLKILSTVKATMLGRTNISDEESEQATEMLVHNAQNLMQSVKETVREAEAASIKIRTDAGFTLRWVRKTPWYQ
Text: (§1) Two approaches were used to identify proteins that specifically interact with PIPKIγ661. […] As numerous focal adhesion proteins are tyrosine phosphorylated, the immunoprecipitates were immunoblotted with anti-phosphotyrosine antibodies. A tyrosine-phosphorylated protein of relative molecular mass 230,000 (Mᵣ 230K) was selectively immunoprecipitated with PIPKIγ661. This protein was identified as talin (Pasquale, et al. (1986) Proc. Natl Acad. Sci. USA 83:5507-5511; DeClue and Martin (1987) Mol. Cell Biol. 7:371-378). […] Only the PIPKIα/γ chimeras that target to focal adhesions associated with talin. To confirm the talin-PIPKIγ661 interaction, talin was immunoprecipitated from HEK293T cells overexpressing PIPKIγ661 or PIPKIγ635. Talin co-precipitated with PIPKIγ661, but not PIPKIγ635. It is known that endogenous PIPKIγ splice isoforms are widely expressed in various cell lines. When endogenous PIPKIγ was immunoprecipitated from a variety of cells types, talin association was consistently observed.
(§2) Immunoprecipitation was performed using standard methods (Zhang, et al. (1997) J. Biol. Chem. 272:17756-17761). […] The immunocomplexes were washed with Buffer A, separated by SDS-polyacrylamide gel electrophoresis (SDS-PAGE), and analyzed as indicated. […]

tensin = tensin (UniProt Q9HBL0 1-1839, limits assumed); assay: as above
Chain of tensin (Q9HBL0 whole entry): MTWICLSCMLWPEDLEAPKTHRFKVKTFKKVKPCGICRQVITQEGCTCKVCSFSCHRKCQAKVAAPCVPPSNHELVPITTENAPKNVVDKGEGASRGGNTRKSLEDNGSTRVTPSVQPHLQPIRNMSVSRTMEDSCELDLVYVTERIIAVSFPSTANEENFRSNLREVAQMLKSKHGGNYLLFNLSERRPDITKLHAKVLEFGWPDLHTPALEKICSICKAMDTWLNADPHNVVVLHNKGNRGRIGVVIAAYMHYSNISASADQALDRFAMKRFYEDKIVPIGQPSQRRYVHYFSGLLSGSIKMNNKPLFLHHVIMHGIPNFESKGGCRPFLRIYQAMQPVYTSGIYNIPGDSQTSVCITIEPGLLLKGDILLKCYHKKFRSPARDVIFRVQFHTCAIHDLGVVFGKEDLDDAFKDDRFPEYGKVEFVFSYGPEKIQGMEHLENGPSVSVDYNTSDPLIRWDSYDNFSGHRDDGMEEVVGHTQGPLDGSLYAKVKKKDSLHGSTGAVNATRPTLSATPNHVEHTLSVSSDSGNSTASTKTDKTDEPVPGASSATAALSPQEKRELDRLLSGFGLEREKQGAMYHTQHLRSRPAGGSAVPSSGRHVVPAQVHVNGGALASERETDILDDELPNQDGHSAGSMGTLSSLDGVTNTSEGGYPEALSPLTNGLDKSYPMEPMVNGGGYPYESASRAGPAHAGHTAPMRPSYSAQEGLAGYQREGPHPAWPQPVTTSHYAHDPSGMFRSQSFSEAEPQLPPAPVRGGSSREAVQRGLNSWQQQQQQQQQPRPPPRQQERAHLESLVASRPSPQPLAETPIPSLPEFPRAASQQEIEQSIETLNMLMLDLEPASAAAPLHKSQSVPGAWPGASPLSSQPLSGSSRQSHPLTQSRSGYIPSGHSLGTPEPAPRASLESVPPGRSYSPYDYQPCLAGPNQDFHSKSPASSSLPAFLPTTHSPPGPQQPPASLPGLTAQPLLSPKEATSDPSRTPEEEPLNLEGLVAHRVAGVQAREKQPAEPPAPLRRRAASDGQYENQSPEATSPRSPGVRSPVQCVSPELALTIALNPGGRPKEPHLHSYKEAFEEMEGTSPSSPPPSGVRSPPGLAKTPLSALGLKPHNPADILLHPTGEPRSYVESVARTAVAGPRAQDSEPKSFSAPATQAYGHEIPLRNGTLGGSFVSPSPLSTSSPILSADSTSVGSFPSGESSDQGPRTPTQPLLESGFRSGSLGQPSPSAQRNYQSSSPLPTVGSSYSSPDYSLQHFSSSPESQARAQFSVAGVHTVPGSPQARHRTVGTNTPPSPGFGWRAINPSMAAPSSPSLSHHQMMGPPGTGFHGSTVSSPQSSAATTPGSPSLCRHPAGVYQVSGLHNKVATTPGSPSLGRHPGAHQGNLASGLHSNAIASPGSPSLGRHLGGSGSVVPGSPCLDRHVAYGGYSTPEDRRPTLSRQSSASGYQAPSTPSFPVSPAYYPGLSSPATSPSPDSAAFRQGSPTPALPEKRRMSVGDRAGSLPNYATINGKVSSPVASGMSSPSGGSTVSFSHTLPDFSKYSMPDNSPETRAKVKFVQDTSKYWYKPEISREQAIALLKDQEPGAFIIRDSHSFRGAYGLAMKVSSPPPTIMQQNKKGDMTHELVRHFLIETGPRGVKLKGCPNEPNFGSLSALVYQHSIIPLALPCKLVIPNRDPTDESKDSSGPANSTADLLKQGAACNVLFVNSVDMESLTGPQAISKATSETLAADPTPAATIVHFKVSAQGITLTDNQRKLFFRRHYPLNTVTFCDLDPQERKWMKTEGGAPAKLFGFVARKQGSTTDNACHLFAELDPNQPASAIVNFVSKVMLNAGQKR
Text: as §1, §2

talin [2] = biological target: T1, talin; assay: peptide displacement of PIPKIγ661 (competitor) from talin in HEK293T cell lysates
Description: (§3) Talin interactions were assessed by GST pull-down using recombinant GST-talin head, His-PIPKIγ635 C-terminus, His-PIPKIγ661 wild-type or Tyr to Phe mutant C-terminus, and His-β1-integrin tail. […] Peptides containing the PIPKIγ661/talin binding sequence (Di Paolo, et al. (2002) supra) were designed to include phosphorylated Tyr⁶⁴⁴₁, phosphorylated Tyr⁶⁴⁹₁ and dual phosphorylated Tyr⁶⁴⁴ and Tyr⁶⁴⁹. The phosphorylated peptides displaced PIPKIγ661 from talin more efficiently than the non-phosphorylated peptide in HEK293T cell lysates.

[3] = biological target: T3, GST-talin head (human talin1 head region 1-435) (human, UniProt Q9Y490 1-435); assay: GST pull-down competition in vitro; competitor His-β1-integrin tail
T3 construct: The construct is human talin1 head region (1-435) cloned from HEK293T cells; also called wild-type GST-talin; not shown: GST (and further tags) of the pET42 vector
T3 sequence (Q9Y490 1-435): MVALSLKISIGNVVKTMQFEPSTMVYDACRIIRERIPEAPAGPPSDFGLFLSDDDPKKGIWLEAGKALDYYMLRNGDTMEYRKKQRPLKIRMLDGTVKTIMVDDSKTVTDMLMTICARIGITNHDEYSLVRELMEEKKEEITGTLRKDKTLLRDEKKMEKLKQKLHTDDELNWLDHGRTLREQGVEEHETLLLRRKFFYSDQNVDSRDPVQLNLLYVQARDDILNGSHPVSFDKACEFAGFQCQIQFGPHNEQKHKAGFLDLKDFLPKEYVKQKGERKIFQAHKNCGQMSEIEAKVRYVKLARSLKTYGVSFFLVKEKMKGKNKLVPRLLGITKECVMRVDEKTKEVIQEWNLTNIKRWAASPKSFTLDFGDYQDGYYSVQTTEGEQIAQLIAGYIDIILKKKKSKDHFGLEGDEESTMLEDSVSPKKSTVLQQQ
Description: as §3
(§4) Purified GST-talin head proteins were incubated with PIPKIγ661 tails or β1-integrin tail, together with Glutathione SEPHAROSE™ 4 Fast Flow (Amersham Biosciences, Piscataway, N.J.), in Buffer B (PBS, 0.2% NP-40, 2 mM DTT) at 4° C. for 4 hours. The beads were washed three times with Buffer B and analyzed by western blot. For competition assays, GST-talin head proteins were incubated with peptides or competing proteins for 2 hours, then the binding proteins were added and the mixtures were incubated for another 4 hours.

[4] = biological target: T3, GST-talin head (human talin1 head …); assay: peptide competition of integrin tail (competitor) binding to GST-talin
Description: as §4

talin [5] = biological target: T1, talin; assay: co-immunoprecipitation of c-Myc-tagged chimeras
Text: as §1, §2

talin [6] = biological target: T1, talin; assay: co-immunoprecipitation with talin

B1: Haemagglutinin (HA)-tagged PIPKIγ661 (enzyme, not shown: small tags and cut ends)
chain: MELEVPDEAESAEAGAVTAEAAWSAESGAAAGMTQKKAGLAEAPLVTGQPGPGHGKKLGHRGVDASGETTYKKTTSSTLKGAIQLGIGYTVGNLSSKPERDVLMQDFYVMESIFFPSEGSNFTPAHHFQDFRFKTYAPVAFRYFRELFGIRPDDYLYSLCNEPLIELSNPGASGSVFYVTSDDEFIIKTVMHKEAEFLQKLLPGYYMNLNQNPRTLLPKFYGLYCVQSGGKNIRVVVMNNVLPRVVKMHLKFDLKGSTYKRRASKKEKEKSLPTYKDLDFMQDMPEGLLLDSDTFGALVKTLQRDCLVLESFKIMDYSLLLGVHNIDQQERERQAEGAQSKADEKRPVAQKALYSTAMESIQGGAARGEAIETDDTMGGIPAVNGRGERLLLHIGIIDILQSYRFIKKLEHTWKALVHDGDTVSVHRPSFYAERFFKFMSSTVFRKSSSLKSSPSKKGRGALLAVKPLGPTAAFSASQIPSEREDVQYDLRGARSYPTLEDEGRPDLLPCTPPSFEEATTASIATTLSSTSLSIPERSPSDTSEQPRYRRRTQSSGQDGRPQEEPHAEDLQKITVQVEPVCGVGVVPKEEGAGVEVPPCGASAAASVEIDAASQASEPASQASDEEDAPSTDIYFPTDERSWVYSPLHYSARPASDGESDT
notes: tyrosine phosphorylated in cells to an extent that depends on the conditions; also called Type I phosphatidylinositol phosphate kinase isoform γ661; HA-PIPKIγ661
**Q.** Does B1 bind (talin [1])?
**A.** Result: binds

**Q.** Does B1 bind (vinculin)?
**A.** Result: no binding

**Q.** Does B1 bind (tensin)?
**A.** Result: no binding

B2: PIPKIγ661 peptide PN (peptide)
peptide: CDERSWVYSPLHYSAR
notes: Synthetic peptide with an added N-terminal Cys; also called non-phosphorylated peptide; unphosphorylated peptide
**Q.** Does B2 bind (talin [2])?
**A.** Result: binds

B3: PIPKIγ661 peptide pY644 (peptide)
peptide: CDERSWV[pY]SPLHYSAR
notes: Synthetic peptide with an added N-terminal Cys
**Q.** Which “fold higher affinity than the non-phosphorylated peptide” value [3] does the source give for B3 here?
**A.** The value was 20 fold.

B4: PIPKIγ661 peptide pY649 (peptide)
peptide: CDERSWVYSPLH[pY]SAR
notes: as for B3
**Q.** For B4, which “fold higher affinity than the non-phosphorylated peptide” value [3] is on record?
**A.** The value was 20 fold.

B5: PIPKIγ661 peptide pY644/649 (peptide)
peptide: CDERSWV[pY]SPLH[pY]SAR
notes: Synthetic peptide with an added N-terminal Cys; also called dual phosphorylated peptide
**Q.** Which “fold higher affinity than the non-phosphorylated peptide” value [3] does the source give for B5 here?
**A.** Its value is 20 fold.

B6: β1-integrin tail peptide β1InpT (peptide)
peptide: CMNAKWD[pT]GENPIYKSA
notes: Synthetic peptide; also called phosphorylated Trp-Asp-Thr peptide
**Q.** Does B6 bind [4]?
**A.** Result: binds

B7: β1-integrin tail peptide β1InpY (peptide)
peptide: CMNAKWDTGENPI[pY]KSA
modifications: not fully specified; printed as Cys-Met-Asn-Ala-Lys-Trp-Asp-*Thr-Gly-Glu-Asn-Pro-Ile-*Tyr-Lys-Ser-Ala
notes: also called phosphorylated Asn-Pro-Ile-Tyr peptide
**Q.** Does B7 bind [4]?
**A.** Result: binds

B8: PIPKIα/γ635 chimera (c-Myc-tagged) (enzyme, not shown: small tags and cut ends)
chain: MASASSGPSSSVGFSSFDPAVPSCTLSSAASGIKRPMASEVLEARQDSYISLVPYASGMPIKKIGHRSVDSSGETTYKKTTSSALKGAIQLGITHTVGSLSTKPERDVLMQDFYVVESIFFPSEGSNLTPAHHYNDFRFKTYAPVAFRYFRELFGIRPDDYLYSLCSEPLIELCSSGASGSLFYVSSDDEFIIKTVQHKEAEFLQKLLPGYYMNLNQNPRTLLPKFYGLYCVQAGGKNIRIVVMNNLLPRSVKMHIKYDLKGSTYKRRASQKEREKPLPTFKDLDFLQDIPDGLFLDADMYNALCKTLQRDCLVLQSFKIMDYSLLMSIHNIDHAQREPLSSETQYSVDTRRPAPQKALYSTAMESIQGEARRGGTMETDDHMGGIPARNSKGERLLLYIGIIDILQSYRFVKKLEHSWKALVHDGDTVSVHRPGFYAERFQRFEDVQYDLRGARSYPTLEDEGRPDLLPCTPPSFEEATTASIATTLSSTSLSIPERSPSDTSEQPRYRRRTQSSGQDGRPQEEPHAEDLQKITVQVEPVCGVGVVPKEEGAGVEVPPCGASAAASVEIDAASQASEPASQASDEEDAPSTDIYF
notes: range 1-444
**Q.** Does B8 bind (talin [5])?
**A.** Result: no binding

B9: PIPKIγ-W (enzyme)
chain: MELEVPDEAESAEAGAVTAEAAWSAESGAAAGMTQKKAGLAEAPLVTGQPGPGHGKKLGHRGVDASGETTYKKTTSSTLKGAIQLGIGYTVGNLSSKPERDVLMQDFYVMESIFFPSEGSNFTPAHHFQDFRFKTYAPVAFRYFRELFGIRPDDYLYSLCNEPLIELSNPGASGSVFYVTSDDEFIIKTVMHKEAEFLQKLLPGYYMNLNQNPRTLLPKFYGLYCVQSGGKNIRVVVMNNVLPRVVKMHLKFDLKGSTYKRRASKKEKEKSLPTYKDLDFMQDMPEGLLLDSDTFGALVKTLQRDCLVLESFKIMDYSLLLGVHNIDQQERERQAEGAQSKADEKRPVAQKALYSTAMESIQGGAARGEAIETDDTMGGIPAVNGRGERLLLHIGIIDILQSYRFIKKLEHTWKALVHDGDTVSVHRPSFYAERFFKFMSSTVFRKSSSLKSSPSKKGRGALLAVKPLGPTAAFSASQIPSEREDVQYDLRGARSYPTLEDEGRPDLLPCTPPSFEEATTASIATTLSSTSLSIPERSPSDTSEQPRYRRRTQSSGQDGRPQEEPHAEDLQKITVQVEPVCGVGVVPKEEGAGVEVPPCGASAAASVEIDAASQASEPASQASDEEDAPSTDIYFPTDERS
notes: The text says only that it lacks both Tyr644 and Tyr649; The end at Trp642 is inferred from the name; also called tail-truncation mutant of PIPKIγ661 lacking Tyr644 and Tyr649
**Q.** Does B9 bind (talin [6])?
**A.** Result: no binding
